Legend:
[1] = Cypermethrin degradation, HPLC; type: biochemical; details: 50 ppm cypermethrin in 1 mL PBS with 10 μL pPytH2; 15 minutes at 37 C, 300 rpm
Experimental: 50 ppm of cypermethrin was placed in 1 mL PBS with 10 μL pPytH2, PytH2 and reacted for 15 minutes at 37 C with shaking at 300 rpm. HPLC was run on the sample after being diluted 1:1 MeOH using instrument method described above for permethrin for 10 minutes.

[2] = Biological permethrin assay for esterase activity (activity units of esterases); type: biochemical; details: esterases used in reaction mix for scud assay
Experimental: A biological permethrin assay was performed for control, and three esterases pnbA, pytH2 and MsE1. The sensitivity of scuds (Hyalella Azteca) to permethrin was tested with three esterases pnbA, pytH2 and MsE1.
For control and each of the three esterases pnbA, pytH2 and MsE1, ten scuds were exposed to permethrin and one of pnbA, pytH2 or MsE1.
• 100 μL 50% MeOH in PBS • 0.2 μg/μL
(§1) • 37 degree C. • 18 hr • Shanking 1000 rpm Transferred 20 μL rxn mix [4 μg] to 100 mL [containing 10 scuds] At time, 24 h and 48 h the ten scuds were scored: A=Alive and Moving actively BA=Barely Alive—Difficulty swimming away; only legs are moving D=Dead—Not moving at all The results of which are shown in FIGS. 8 and 9.

scuds (Hyalella azteca) = assay: Scud bioassay: scuds exposed to permethrin with or without enzyme, kill counts; type: in vivo; details: scuds exposed to permethrin plus degrading enzyme versus permethrin alone
Experimental: A standard of permethrin (CAS Number […]) was prepared and analyzed by HPLC as a control, then different concentrations of enzymatic solution were added to the standard to find an effective concentration (of pPytH2) needed to degrade the permethrin. After degradation was confirmed through HPLC analysis by the qualification and quantitation of permethrin hydrolysis byproducts, a bioassay was performed with crustaceans (scuds), who are also highly sensitive to pyrethroid toxicity. In the bioassay, scuds were exposed to two different environments. Permethrin was added to the first environment to get a scud kill count without the presence of the enzyme as a control and the next environment was evaluated by adding both permethrin and the degrading enzyme to the scud environment and kill counts were compared.
The next step was to test the enzymatic hydrolysis of permethrin in feline blood (cat serum). […] After the cat serum control was analyzed three different concentrations of the enzyme were introduced to the cat serum control and then analyzed by HPLC. […]
as §1

B1: E3: carboxylesterase PytH2 (pytH) from Sphingobium wenxiniae, amino acid SEQ. ID No. 3, DNA SEQ. ID No. 6; recombinant, His-tagged (protein, listed as Sphingobium wenxiniae)
chain: MTVTDIILIHGALNRGACYDAVVPLLEARGYRVHAPDLTGHTPGDGGHLSVVDMEHYTRPVADILARAEGQSILLGHSLGGASISWLAQHHYDKVAGLIYLTAVLTAPGITPETFVLPGEPNRGTPHALDLIQPVDEGRGLQADFSRLERLREVFMGDYPGEGMPPAEQFIQTQSTVPFGTPNPMEGRALEIPRLYEALDDVVIPIAVQRQMQKEFPGPVAVVSLPASHAPYYSMPERLAEAIADFADAPAEYRQTATKAGPDRPAGADGGRADRADLP
modifications: His tag
notes: ID No. 6; recombinant, His-tagged
[1]
  Cypermethrin degradation rate: 12.69 nmol/min/μg pPytH2
[2]
  Activity units: 31.6
Scuds (Hyalella azteca)
  effect on permethrin in scud bioassay: hydrolyzed the toxic permethrin molecule and degraded permethrin
